According to IntAct's records for PubMed 22495310:

B1: CREB-regulated transcription coactivator 2 (Mus musculus), Q3U182 (parent)
chain: MATSGANGPGSATASASNPRKFSEKIALQKQRQAEETAAFEEVMMDIGSTRLQAQKLRLAYTRSSHYGGSLPNVNQIGCGLAEFQSPLHSPLDSSRSTRHHGLVERVQRDARRMVSPLRRYPRHIDSSPYSPAYLSPPPESGWRRMMPWGNLPAEKGQLFRLPSALNRTSSDSALHTSVMNPNPQDTYPGPTPPSVLPSRRGGGFLDGEMDAKVPAIEENVVDDKHLLKPWDAKKLSSSSSRPRSCEVPGINIFPSPDQPANVPVLPPAMNTGGSLPDLTNLHFPPPLPTPLDPEETVYPSLSGGNSTTNLTHTMTHLGISGGLGLGPSYDVPGLHSPLSHPSLQSSLSNPNLQASLSSPQPQLQGSHSHPSLPASSLAHHALPTTSLGHPSLSAPALSSSSSSSSTSSPVLSAPPYPASTPGASPRHRRVPLSPLSLPAGPADARRSQQQLPKQFSPTMSPTLSSITQGVPLDTSKLPTDQRLPPYPYSPPSLVIPTHPPTPKSLQQLPSQACLVQPSGGQPPGRQPHYGALYPPGSSGHGQQPYHRPINDFSLGNLEQFNMESPSTSLVLDPPAFSEGPGFLGSEGSMSGPQDPHVLNHQNLTHCSRHGSGPNIILTGDSSPGFSKEIAAALAGVPGFEVSASGLELGLGLEDELRMEPLGLEGLTMLSDPCALLPDPAVEDSFRSDRLQ

Variants of: B1
Details: with pp2ba_mouse Ppp3ca

Variant	effect of a mutation on the interaction
P614G;I616A;L618A;T619A	decreasing interaction strength
